Assay results: the supplement of paper PMC7877785
± gives the uncertainty stated by the source.

Test: self-splicing fitness, log relative to wild type (ln ratio); higher = more splicing; Tetrahymena group I intron in knt gene, E. coli kanamycin selection, DiMSum; sequences stand for … in CUCUCU…GGAGGGAAAAGUUAUCAGGCAUGCACCUGGUAGCUAGUCUUUAAACCAAUAGAUUGCAUCGGUUUAAAAGGCAAGACCGUCAAAUUGCGGGAAAGGGGUCAACAGCCGUUCAGUACCAAGUCUCAGGGGAAACUUUGAGAUGGCCUUGCAAAGGGUAUGGUAAUAAGCUGACGGACAUGGUCCUAACCACGCAGCCAAGUCCUAAGUCAACAGAUCUUCUGUUGAUAUGGAUGCAGUUCACAGACUAAAUGUCGGUCGGGGAAGAUGUAUUCUUCUCAUAAGAUAUAGUCGGACCUCUCCUUAAUGGGAGCUAGCGGAUGAAGUGAUGCAACACUGGAGCCGCUGGGAACUAAUUUGUAUGCGAAAGUAUAUUGAUUAGUUUUGGAGUACUCGUGGUCG
How it was run: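 The eight P1ex-region nucleotides of an intron in the knt kanamycin-resistance gene on pET-22b(+) were all randomised and the library put into E. coli BL21(DE3). Six replicate transformations were grown overnight at 37°C or 30°C on LB agar with or without 25 μg/mL kanamycin, together with 100 μg/mL carbenicillin, 50 μM IPTG and 0.2% rhamnose. Colonies were pooled and amplicon-sequenced on an Illumina HiSeq 2500. Fitness from DiMSum is the error-weighted combination of wild-type-normalised replicate fold changes, kanamycin over none.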

| Sequence | self-splicing fitness (ln) (30 °C) | self-splicing fitness (ln) (37 °C) |
| --- | --- | --- |
| GCACAGCAAUAUUACGCCUA | -0.82 ± 0.13 | -0.373 ± 0.11 |
| UCGAAGCAAUAUUACGGCUG | -1.98 ± 0.14 | -0.494 ± 0.14 |
| UAGCAGCAAUAUUACGCAUU | -2.38 ± 0.13 | -1.08 ± 0.11 |
| CGGCAGCAAUAUUACGGUAU | -3.82 ± 0.19 | -3.18 ± 0.22 |
| AAUAAGCAAUAUUACGCUCC | -1.46 ± 0.23 | -0.799 ± 0.24 |
| AGCAAGCAAUAUUACGUAUC | -3.34 ± 0.26 | -1.41 ± 0.2 |
| ACGAAGCAAUAUUACGUCCU | -0.493 ± 0.083 | -0.288 ± 0.11 |
| GUCGAGCAAUAUUACGGUAC | -1.98 ± 0.11 | -1.91 ± 0.16 |
| AAAAAGCAAUAUUACGCUCU | -1.08 ± 0.081 | -0.167 ± 0.09 |
| GGCAAGCAAUAUUACGGCGG | -2.44 ± 0.19 | -1.13 ± 0.2 |
| AUUCAGCAAUAUUACGCGUC | -1.11 ± 0.17 | -0.615 ± 0.21 |
| GUCUAGCAAUAUUACGAACA | -1.13 ± 0.13 | -0.831 ± 0.11 |
| ACACAGCAAUAUUACGACAC | -1.35 ± 0.081 | 0.0205 ± 0.11 |
| UGGUAGCAAUAUUACGGGCU | -2.27 ± 0.14 | -0.926 ± 0.11 |
| UUUUAGCAAUAUUACGCGCA | -0.13 ± 0.11 | -0.0853 ± 0.12 |
| CCAGAGCAAUAUUACGCGCG | -1.19 ± 0.1 | -0.59 ± 0.14 |
| ACUAAGCAAUAUUACGAAGA | -1.65 ± 0.17 | -1.29 ± 0.18 |
| ACAGAGCAAUAUUACGAGCU | -3.43 ± 0.18 | -2.22 ± 0.22 |
| CAAGAGCAAUAUUACGAUGC | -2.54 ± 0.32 | -2.31 ± 0.39 |
| UCAUAGCAAUAUUACGACGU | -1.76 ± 0.12 | -1.37 ± 0.15 |
| UCGUAGCAAUAUUACGGAAA | -3.38 ± 0.35 | -2.72 ± 0.31 |
| CGGAAGCAAUAUUACGGGUU | -4.48 ± 0.26 | -2.77 ± 0.2 |
| CCAAAGCAAUAUUACGCGAC | -4.37 ± 0.27 | -2.87 ± 0.21 |
| CCUUAGCAAUAUUACGAGCC | -3.38 ± 0.34 | – |
| CAGAAGCAAUAUUACGUCGU | -4.88 ± 0.36 | -1.3 ± 0.14 |

| Sequence | self-splicing fitness (ln) (30 °C) | self-splicing fitness (ln) (37 °C) |
| --- | --- | --- |
| CCGUAGCAAUAUUACGUGCC | -4.11 ± 0.47 | -2.33 ± 0.28 |
| CACGAGCAAUAUUACGUGUG | -3.48 ± 0.13 | -3.21 ± 0.17 |
| GCCGAGCAAUAUUACGGGUA | -1.36 ± 0.068 | -0.505 ± 0.068 |
| CUUUAGCAAUAUUACGACAG | -0.431 ± 0.071 | -0.339 ± 0.097 |
| UGAUAGCAAUAUUACGUCGC | – | -2.13 ± 0.39 |
| UUUUAGCAAUAUUACGUCGG | -1.95 ± 0.15 | -0.321 ± 0.17 |
| CCGUAGCAAUAUUACGGAAU | -3.73 ± 0.3 | -1.92 ± 0.32 |
| UAUCAGCAAUAUUACGCUUU | -1.48 ± 0.086 | -0.159 ± 0.098 |
| GAAUAGCAAUAUUACGAGCU | -1.21 ± 0.081 | -0.335 ± 0.1 |
| CCGAAGCAAUAUUACGCCAU | -4.11 ± 0.27 | -3.25 ± 0.21 |
| AUAAAGCAAUAUUACGUUGC | -3.81 ± 0.19 | -3.29 ± 0.29 |
| UGAGAGCAAUAUUACGUUCG | -2.08 ± 0.13 | -1.3 ± 0.15 |
| GACGAGCAAUAUUACGUACC | -3.61 ± 0.28 | -1.75 ± 0.21 |
| CCCGAGCAAUAUUACGAGUA | -3.01 ± 0.16 | -2.37 ± 0.14 |
| CGAGAGCAAUAUUACGCGUG | -1.48 ± 0.13 | -2.95 ± 0.23 |
| GCUGAGCAAUAUUACGUUCA | -3.45 ± 0.28 | -1.81 ± 0.2 |
| CGCUAGCAAUAUUACGCAAU | -2.44 ± 0.3 | -2.09 ± 0.36 |
| ACUCAGCAAUAUUACGCAUG | -2.09 ± 0.15 | -2.23 ± 0.15 |
| UUAGAGCAAUAUUACGGAGA | -0.579 ± 0.13 | -0.654 ± 0.23 |
| AGCUAGCAAUAUUACGGAGA | -2.24 ± 0.22 | -3.14 ± 0.37 |
| GUACAGCAAUAUUACGCUGC | -4.33 ± 0.26 | -2.74 ± 0.3 |
| GUUCAGCAAUAUUACGCGUG | -0.852 ± 0.083 | 0.166 ± 0.088 |
| GACGAGCAAUAUUACGCUCA | -1.28 ± 0.15 | -0.493 ± 0.13 |
| GUGCAGCAAUAUUACGCCGA | -1.56 ± 0.13 | -0.832 ± 0.12 |
| CCGCAGCAAUAUUACGAUCG | 0.289 ± 0.083 | 0.186 ± 0.11 |

| Sequence | self-splicing fitness (ln) (30 °C) | self-splicing fitness (ln) (37 °C) |
| --- | --- | --- |
| CAAUAGCAAUAUUACGGCAC | -3.57 ± 0.2 | -3.06 ± 0.28 |
| UGUUAGCAAUAUUACGUCGU | -3.5 ± 0.33 | -2.69 ± 0.23 |
| CGAAAGCAAUAUUACGCACU | -0.573 ± 0.11 | 0.0275 ± 0.13 |
| UGAUAGCAAUAUUACGAGUC | -3.08 ± 0.22 | -3.08 ± 0.4 |
| CGUCAGCAAUAUUACGUCCG | -1.03 ± 0.11 | -0.273 ± 0.14 |
| AUGUAGCAAUAUUACGGACG | -3.24 ± 0.2 | -1.09 ± 0.13 |
| GGAUAGCAAUAUUACGAUGG | -1.27 ± 0.38 | – |
| GCUUAGCAAUAUUACGAUUU | -0.0141 ± 0.091 | -0.234 ± 0.12 |
| AUAAAGCAAUAUUACGUUAU | -0.793 ± 0.064 | -0.4 ± 0.11 |
| UCCUAGCAAUAUUACGCGUC | -3.53 ± 0.35 | -3.53 ± 0.42 |
| UUCCAGCAAUAUUACGGAGC | -4.31 ± 0.31 | -2.99 ± 0.47 |
| CGCAAGCAAUAUUACGAAAA | -2.47 ± 0.38 | -2.96 ± 0.4 |
| CAAUAGCAAUAUUACGGCGC | -3.81 ± 0.35 | -1.37 ± 0.19 |
| UCCGAGCAAUAUUACGUGCC | -3.03 ± 0.26 | -2.97 ± 0.35 |
| CUGGAGCAAUAUUACGCCAU | – | -2.32 ± 0.34 |
| AAGCAGCAAUAUUACGCUAC | -2.96 ± 0.24 | -2.31 ± 0.24 |
| UCUCAGCAAUAUUACGGAUC | -3.82 ± 0.32 | -1.52 ± 0.13 |
| UGGCAGCAAUAUUACGACUG | -1.01 ± 0.071 | -0.812 ± 0.1 |
| ACUCAGCAAUAUUACGAGUU | -4.72 ± 0.21 | -2.36 ± 0.17 |
| ACGUAGCAAUAUUACGGAGU | -3.1 ± 0.1 | -1.18 ± 0.079 |
| GGCAAGCAAUAUUACGAUUU | -0.299 ± 0.058 | 0.164 ± 0.077 |
| AAAGAGCAAUAUUACGAGAA | -2.11 ± 0.46 | – |
| AACUAGCAAUAUUACGAUCA | -0.213 ± 0.099 | -0.0939 ± 0.11 |
| AUAAAGCAAUAUUACGGGCU | -0.992 ± 0.08 | -0.621 ± 0.1 |
| CAUCAGCAAUAUUACGACUU | -1.85 ± 0.081 | -0.408 ± 0.081 |

| Sequence | self-splicing fitness (ln) (30 °C) | self-splicing fitness (ln) (37 °C) |
| --- | --- | --- |
| CUGGAGCAAUAUUACGCGGG | -3.62 ± 0.33 | -2.33 ± 0.31 |
| UGCUAGCAAUAUUACGAUAG | -2.49 ± 0.1 | -0.62 ± 0.1 |
| AGUCAGCAAUAUUACGGAGU | -1.63 ± 0.062 | -0.578 ± 0.073 |
| CAGAAGCAAUAUUACGCUCA | -1.61 ± 0.11 | 0.0994 ± 0.11 |
| GGAGAGCAAUAUUACGCUGA | -2.98 ± 0.19 | -1.36 ± 0.24 |
| CGACAGCAAUAUUACGUAAG | -0.425 ± 0.08 | 0.126 ± 0.095 |
| CCAAAGCAAUAUUACGCGUC | -3.17 ± 0.21 | -2.98 ± 0.34 |
| ACUGAGCAAUAUUACGGGCU | -3.34 ± 0.17 | -2.92 ± 0.25 |
| GGGGAGCAAUAUUACGGGCC | – | -1.4 ± 0.28 |
| AAACAGCAAUAUUACGAUCU | -0.534 ± 0.063 | 0.138 ± 0.076 |
| AUUAAGCAAUAUUACGGGAG | -3.06 ± 0.23 | -1.89 ± 0.18 |
| GACAAGCAAUAUUACGGACC | -1.32 ± 0.1 | -0.785 ± 0.11 |
| UCUUAGCAAUAUUACGGAGC | -3.74 ± 0.4 | -0.68 ± 0.14 |
| GGGGAGCAAUAUUACGGGUG | -3.57 ± 0.23 | -2.9 ± 0.43 |
| UUUUAGCAAUAUUACGAGUA | -1.55 ± 0.27 | -0.821 ± 0.29 |
| UAGAAGCAAUAUUACGUUCC | -2.51 ± 0.19 | -0.539 ± 0.17 |
| GUCCAGCAAUAUUACGUGUU | -1.52 ± 0.055 | -0.617 ± 0.068 |
| GACCAGCAAUAUUACGAGCG | -2.08 ± 0.067 | -0.434 ± 0.077 |
| CUAUAGCAAUAUUACGGAUG | -0.942 ± 0.11 | -0.343 ± 0.11 |
| AGACAGCAAUAUUACGAUAC | -2.64 ± 0.27 | -1.79 ± 0.25 |
| GGGCAGCAAUAUUACGUGGG | -3.1 ± 0.12 | -2.62 ± 0.13 |
| CAGCAGCAAUAUUACGUUGU | -2.88 ± 0.1 | -1.52 ± 0.13 |
